Patent publication US20230227577A1 (MYTHIC THERAPEUTICS, published 2023)

Assays:
mouse DLL3 on CHO cells = target: T1, mouse DLL3 on CHO cells (mouse, UniProt O88516 33-592); assay: flow cytometry (FACS) on CHO cells expressing mouse DLL3
T1 construct: whole, on cells; also called CHO cells expressing mouse DLL3
T1 sequence (looked up): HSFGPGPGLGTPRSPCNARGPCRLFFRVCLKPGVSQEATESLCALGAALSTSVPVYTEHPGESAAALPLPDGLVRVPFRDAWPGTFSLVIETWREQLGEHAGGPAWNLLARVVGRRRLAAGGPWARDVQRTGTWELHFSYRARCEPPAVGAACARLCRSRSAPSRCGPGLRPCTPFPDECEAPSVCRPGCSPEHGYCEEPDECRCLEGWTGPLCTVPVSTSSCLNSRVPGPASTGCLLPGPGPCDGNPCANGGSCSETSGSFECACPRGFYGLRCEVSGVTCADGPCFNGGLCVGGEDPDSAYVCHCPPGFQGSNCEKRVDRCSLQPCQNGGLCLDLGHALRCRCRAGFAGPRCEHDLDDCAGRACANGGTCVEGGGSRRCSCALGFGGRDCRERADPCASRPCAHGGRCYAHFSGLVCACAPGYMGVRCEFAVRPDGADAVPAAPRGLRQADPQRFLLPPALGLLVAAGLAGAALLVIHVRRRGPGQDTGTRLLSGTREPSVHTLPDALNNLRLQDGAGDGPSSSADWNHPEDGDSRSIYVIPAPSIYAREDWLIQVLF
Procedure: (§1) Additional experiments were carried out to further characterize the binding properties of the anti-DLL3 constructs. Binding properties tested include dissociation constant (KD), off-rate (koff), binding to DLL3 protein by ELISA and binding to CHO cells expressing human, cyno or mouse DLL3. To obtain off-rate (koff), human biotinylated DLL3 was immobilized on Octet SA tips, and cynomolgus or mouse DLL3 was immobilized on Octet AR2G tips. For each DLL3 protein, the binding to a dilution series of each anti-DLL3 construct was measured using Fortebio Octet Red. The dissociation constant (KD), off-rate (koff) and other kinetic parameters for each anti-DLL3 construct were calculated using a 1:1 binding model. In addition, binding of these anti-DLL3 constructs to CHO cells expressing human, cyno or mouse DLL3 protein was analyzed using flow cytometry (FACS).

[1] = target: T2, recombinant human DLL3 protein (human, UniProt Q9NYJ7 27-492, limits assumed); assay: Fortebio Octet Red, DLL3 immobilised on tips, dilution series of the VHH, 1:1 binding model; kon error 1.20E+02; Full R2 0.9994
T2 construct: also called rhu DLL3; human biotinylated DLL3
T2 sequence (looked up): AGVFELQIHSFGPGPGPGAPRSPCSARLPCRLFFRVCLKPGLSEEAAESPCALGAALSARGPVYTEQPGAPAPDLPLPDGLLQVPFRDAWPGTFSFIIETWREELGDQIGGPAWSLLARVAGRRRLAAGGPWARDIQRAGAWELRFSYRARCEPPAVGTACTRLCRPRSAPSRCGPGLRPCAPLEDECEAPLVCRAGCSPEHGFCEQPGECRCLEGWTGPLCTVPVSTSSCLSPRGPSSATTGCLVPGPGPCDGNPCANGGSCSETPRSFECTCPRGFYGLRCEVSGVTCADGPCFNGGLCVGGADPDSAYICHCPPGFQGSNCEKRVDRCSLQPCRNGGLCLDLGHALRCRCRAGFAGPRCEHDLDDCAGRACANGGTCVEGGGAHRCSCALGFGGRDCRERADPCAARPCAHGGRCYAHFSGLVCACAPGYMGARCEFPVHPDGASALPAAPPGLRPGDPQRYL
Procedure: as §1

[2] = target: T3, DLL3 target antigen coated on Octet SA tips (binning experiment) (Homo sapiens (Human), UniProt Q9NYJ7 27-492, Probably biotinylated for capture on streptavidin (SA) tips. The site is not stated.); assay: Octet binning on DLL3-coated SA tips; competitor: 2HCE117
T3 sequence: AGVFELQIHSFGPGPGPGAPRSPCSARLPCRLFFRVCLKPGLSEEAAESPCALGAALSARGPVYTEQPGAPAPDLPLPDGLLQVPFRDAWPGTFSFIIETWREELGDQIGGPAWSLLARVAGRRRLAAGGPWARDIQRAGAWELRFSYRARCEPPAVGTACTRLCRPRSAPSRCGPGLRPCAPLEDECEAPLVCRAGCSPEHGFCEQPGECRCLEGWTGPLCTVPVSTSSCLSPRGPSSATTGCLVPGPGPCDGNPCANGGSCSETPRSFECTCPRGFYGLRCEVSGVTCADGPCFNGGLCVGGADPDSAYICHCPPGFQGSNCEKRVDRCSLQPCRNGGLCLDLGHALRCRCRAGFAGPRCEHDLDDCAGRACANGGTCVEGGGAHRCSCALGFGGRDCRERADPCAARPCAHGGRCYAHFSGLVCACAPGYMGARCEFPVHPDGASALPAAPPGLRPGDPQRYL
Procedure: (§2) Antibody binning experiments were carried out for 5 anti-DLL3 VHHs and an anti-human DLL3 BiTE (SEQ ID NO: 756). The target antigen was coated on a series of Octet SA tips. Each series of tips was first soaked in a periplasmic extract containing one specific VHH. After the response signals reached saturation, the tips were transferred to a mix of PEs containing again the first VHH (at the same concentration) plus a different VHH (termed secondary VHH) for each tip of the series. Secondary VHH that still bind the target antigen in the presence of the first VHH will show an increased response, as compared to the binding response of the first VHH alone. This was repeated for each VHH as primary VHH until all VHH were tested against each other in both directions (as primary and as secondary binder). From the response data, the bins were deduced for each VHH. 2HCE117 and 3HCE4 show competition with the human DLL3 BiTEs, whereas 3HCE56 and 3HCE87 show a partial competition.

[3] = target: T3, DLL3 target antigen coated on Octet SA …; assay: Octet binning on DLL3-coated SA tips; competitor: DLL3 BiTEs
Procedure: as §2

[4] = target: T2, recombinant human DLL3 protein; assay: Fortebio Octet Red, DLL3 immobilised on tips, dilution series of the VHH, 1:1 binding model; KD error 1.39E-11; Full R2 0.9994
Procedure: as §1

binding result (mouse DLL3 on CHO cells): binds
kon [1]: 80900 M⁻¹ s⁻¹
binning response (unit not given) [2]: 19900
binning response (unit not given) [3]: 83.4
Kd [4]: 7.89 nM
B1: 2HCE27 anti-DLL3 VHH (VHH)
VHH: QVQLQESGGGLVQAGGSLRLSCAASGRTFRSYAMGWFRQAPGKEREFIAVIIMSDGSTSYADSVKGRFTISRDNAKNTLYLQMNSLKPEDTAVYYCAARRDYFTGVYDYWGQGTQVTVSS
notes: In the binning assay it was used as a periplasmic extract; also called anti-DLL3 (2HCE27)
